For 1 substance, percent neutralization results are on record in patent publication US20260071233A1.

The assay has as its target Recombinant rat IFN-γ (rat) (UniProt P01581).
UniProt P01581, sequence (P01581 23-156 limits assumed): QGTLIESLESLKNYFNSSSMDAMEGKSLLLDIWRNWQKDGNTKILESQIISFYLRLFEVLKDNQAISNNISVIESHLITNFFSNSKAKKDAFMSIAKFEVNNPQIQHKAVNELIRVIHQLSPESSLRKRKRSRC

Take Recombinant B8R protein: the percent neutralization is greater than 50%.
